Measurements: US20250326812A1 (CUGENE, published 2025)
Each block holds one binder with its values, some of them ahead of it. Where no end group is shown, it is not given here.

Biological target: T1, P-0153, an IL-15/IL-15RαSushi+ Fc fusion protein
T1 construct: Heterodimeric knob/hole Fc fusion; It served as the plate-coated source of IL-15 in the peptide ELISA
Experiment: ELISA; P-0153 coated on the plate at 1 ug/well, biotinylated peptide in 3-fold dilutions from 100 uM, streptavidin-HRP, TMB, OD450
Description: The five peptides, L01 to L05 (SEQ ID NO: 97-101) in Table 13 were synthesized and assessed for their binding to IL-15 in ELISA format. […] Streptavidin-HRP complex at the manufacturer's recommended concentration was added and signal was developed by TMB substrate.

T1 sequence (chain, as listed by the source, chain 1 of 2): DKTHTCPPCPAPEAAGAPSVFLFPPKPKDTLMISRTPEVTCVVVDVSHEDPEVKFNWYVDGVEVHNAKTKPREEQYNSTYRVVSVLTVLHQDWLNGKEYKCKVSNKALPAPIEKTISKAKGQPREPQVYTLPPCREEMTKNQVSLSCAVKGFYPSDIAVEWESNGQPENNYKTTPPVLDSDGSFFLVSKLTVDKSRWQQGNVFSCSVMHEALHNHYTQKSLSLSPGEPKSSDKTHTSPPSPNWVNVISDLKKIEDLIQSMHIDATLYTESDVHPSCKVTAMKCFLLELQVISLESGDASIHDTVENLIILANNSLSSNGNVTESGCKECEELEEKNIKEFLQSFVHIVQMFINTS
T1 sequence (chain, as listed by the source, chain 2 of 2): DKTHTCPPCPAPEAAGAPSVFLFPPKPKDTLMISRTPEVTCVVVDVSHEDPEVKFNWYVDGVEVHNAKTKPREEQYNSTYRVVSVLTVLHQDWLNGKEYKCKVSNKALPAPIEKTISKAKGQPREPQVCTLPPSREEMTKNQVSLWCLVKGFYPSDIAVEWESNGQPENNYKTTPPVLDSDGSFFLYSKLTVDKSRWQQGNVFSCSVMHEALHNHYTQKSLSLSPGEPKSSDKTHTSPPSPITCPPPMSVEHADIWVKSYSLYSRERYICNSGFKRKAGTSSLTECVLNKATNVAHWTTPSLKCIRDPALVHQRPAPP

binding result: binds
B1: L02 (peptide)
peptide: EISQASHYFERHL
modifications: also: biotinylated, site not given here
notes: also called IL-2Rβ loop 2 peptide (linear)

EC50 (read off the curve): ~8 µM
B2: Blocking peptide L03 (cyclized IL-2Rβ loop 2) (peptide)
peptide: CEISQASHYFERHLC
modifications: also: biotinylated, position not given here, cyclized, mode and sites not given here
notes: Synthetic peptide

binding result: binds
Binder: LGAPDSQKLTTVDIVGGGGGGGGEISQASHYFERHL (also: biotinylated, site not given here) [L04]
